# Molecular target: 6xHis-SUMO-CXCR2(NTD) (human) (UniProt P25025)
# Experiment: BLI (Octet R4), His-tagged SUMO-CXCR2(NTD) on HIS1K biosensor, IgG as analyte, 1:1 model
# UniProt P25025, sequence (P25025 1-48): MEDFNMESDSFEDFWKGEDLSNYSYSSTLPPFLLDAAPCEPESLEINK
row,Kd [nM],Binder
1,8.9,"IgG_18 (antibody, part only; not given: VL CDR2; constant regions, V domains shown, part only) VH: EVQLLESGGGLVQPGGSLRLSCAASGFTFSNYAMSWVRQAPGKGLEWVSSISPSGSSKYYADSVKGRFTISRDNSKNTLYLQMNSLRAEDTAVYYCAKHNRHFDYWGQGTLVTVSS VL, part: QSVLTQPPSASGTPGQRVTISCTGSSSNIGSHYVSWYQQLPGTAPKLLIYHRPSGVPDRFSGSKSGTSASLAISGLRSEDEADYYCGSWDDSLNAYVFGGGTKLTVL"
2,5.6,"IgG_56 (antibody, part only; not given: VL CDR2; constant regions, V domains shown, part only) VH: EVQLLESGGGLVQPGGSLRLSCAASGFTFSGYPMSWVRQAPGKGLEWVSSISSSGGNTYYADSVKGRFTISRDNSKNTLYLQMNSLRAEDTAVYYCARFGIHHPDRALYYANAMDVWGQGTLVTVSS VL, part: QSVLTQPPSASGTPGQRVTISCSGSSSNIGNNDVNWYQQLPGTAPKLLIYQRPSGVPDRFSGSKSGTSASLAISGLRSEDEADYYCATWDASLSAYVFGGGTKLTVL"
3,250,"IgG_54 (antibody, part only; not given: VL CDR2; constant regions, V domains shown, part only) VH: EVQLLESGEGLVQPGGSLRLSCAASGFTFSNYSMSWVRQAPGKGLEWVSGISSGGGSKYYADSVKGRFTISRDNSKNTLYLQMNSLRAEDTAVYYCARQATAFDYWGQGTLVTVSS VL, part: QSVLTQPPSASGTPGQRVTISCTGSSSNIGNNSVTWYQQLPGTAPKLLIYNRPSGVPDRFSGSKSGTSASLAISGLRSEDEADYYCGTWDDSLSAYVFCGGTKLTVL"

# — patent publication EP4700046A1
